This experiment concerns the target HER-2 protein (human p185 HER-2 receptor) (human) (UniProt P04626). Put plainly: flow cytometry on SKBR3 cells, control sample. For orientation: A flow cytometer gives signals particle by particle.

negative control sera (antibody) yielded a Mean Cell Fluorescence of 0.647.

These data come from patent US7060284.
